Laboratory results taken from paper PMC9482650, “Quantitative fragmentomics allow affinity mapping of interactomes” (Nature Communications, 2022).

T1: APBA2_2, Q99767
T1 sequence (Q99767 654-744, limits assumed, looked up): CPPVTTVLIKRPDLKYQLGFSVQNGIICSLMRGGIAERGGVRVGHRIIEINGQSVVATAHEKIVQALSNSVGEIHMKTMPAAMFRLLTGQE

T2: GRIP1_3, Q9Y3R0
T2 sequence (Q9Y3R0 247-346, limits assumed, looked up): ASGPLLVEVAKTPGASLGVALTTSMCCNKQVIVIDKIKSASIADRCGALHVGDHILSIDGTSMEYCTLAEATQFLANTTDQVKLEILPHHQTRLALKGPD

T3: HTRA4, P83105
T3 sequence (P83105 378-476, limits assumed, looked up): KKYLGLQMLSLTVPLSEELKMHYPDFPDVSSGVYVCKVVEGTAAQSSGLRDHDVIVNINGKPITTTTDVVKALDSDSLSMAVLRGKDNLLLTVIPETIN

T4: LNX2_3, Q8N448
T4 sequence (Q8N448 463-564, limits assumed, looked up): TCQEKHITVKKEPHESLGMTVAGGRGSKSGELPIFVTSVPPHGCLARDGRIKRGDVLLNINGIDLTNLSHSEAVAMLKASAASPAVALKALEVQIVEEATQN

T5: LRRC7, Q96NW7
T5 sequence (Q96NW7 1440-1537, limits assumed, looked up): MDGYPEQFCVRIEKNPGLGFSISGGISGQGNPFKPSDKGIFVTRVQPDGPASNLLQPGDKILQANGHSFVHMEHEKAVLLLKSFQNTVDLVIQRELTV

T6: MPDZ_5, O75970
T6 sequence (O75970 695-796, limits assumed, looked up): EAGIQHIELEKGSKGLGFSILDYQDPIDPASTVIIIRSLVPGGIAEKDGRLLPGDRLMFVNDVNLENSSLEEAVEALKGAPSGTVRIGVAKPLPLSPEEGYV

T7: MPP6, Q9NZW5
T7 sequence (Q9NZW5 125-219, limits assumed, looked up): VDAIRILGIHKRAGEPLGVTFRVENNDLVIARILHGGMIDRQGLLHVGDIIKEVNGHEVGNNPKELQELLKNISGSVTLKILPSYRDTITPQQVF

T8: RAPGEF6, Q8TEU7
T8 sequence (Q8TEU7 525-625, limits assumed, looked up): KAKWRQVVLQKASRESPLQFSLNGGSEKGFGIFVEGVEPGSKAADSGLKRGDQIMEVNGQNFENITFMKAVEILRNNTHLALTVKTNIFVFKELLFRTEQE

T9: SIPA1L2, Q9P2F8
T9 sequence (Q9P2F8 945-1036, limits assumed, looked up): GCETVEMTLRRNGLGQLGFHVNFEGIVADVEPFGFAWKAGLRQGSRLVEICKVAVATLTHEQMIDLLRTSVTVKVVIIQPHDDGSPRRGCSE

T10: SNTB1, Q13884
T10 sequence (Q13884 107-205, limits assumed, looked up): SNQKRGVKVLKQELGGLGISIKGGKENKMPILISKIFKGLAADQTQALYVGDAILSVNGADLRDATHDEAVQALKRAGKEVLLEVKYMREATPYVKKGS

T11: TIAM2, Q8IVF5
T11 sequence (Q8IVF5 885-986, limits assumed, looked up): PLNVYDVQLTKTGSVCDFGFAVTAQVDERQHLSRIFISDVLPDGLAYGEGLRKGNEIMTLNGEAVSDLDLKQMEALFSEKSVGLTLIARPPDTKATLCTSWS


Columns and labels:
Assay in all cases: holdup assay
Set-up in all cases: key: below the threshold = too weak to quantify, mostly under pKd 3.1 to 4
Settings in all cases: plain residues with an end cap or a label only (N-terminal biotin on a linker: ado-ado)
APBA2_2, Q99767 = target: T1, APBA2_2, Q99767
DLG1_1, Q12959 = target: DLG1_1, Q12959
DLG4_1, P78352 = target: DLG4_1, P78352
Chain of DLG4_1, P78352 (P78352 62-152): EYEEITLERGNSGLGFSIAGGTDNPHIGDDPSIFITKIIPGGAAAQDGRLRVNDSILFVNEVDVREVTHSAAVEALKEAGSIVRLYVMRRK

DLG4_3, P78352 = target: DLG4_3, P78352
Chain of DLG4_3, P78352 (P78352 306-403): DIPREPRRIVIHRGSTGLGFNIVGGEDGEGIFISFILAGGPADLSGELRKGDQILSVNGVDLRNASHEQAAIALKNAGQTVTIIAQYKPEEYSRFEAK

FRMPD2_1, Q68DX3 = target: FRMPD2_1, Q68DX3
Chain of FRMPD2_1, Q68DX3 (Q68DX3 770-861): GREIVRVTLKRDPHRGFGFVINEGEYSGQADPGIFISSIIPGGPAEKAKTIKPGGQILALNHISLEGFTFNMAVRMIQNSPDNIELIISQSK

FRMPD2_2, Q68DX3 = target: FRMPD2_2, Q68DX3
Chain of FRMPD2_2, Q68DX3 (Q68DX3 944-1038): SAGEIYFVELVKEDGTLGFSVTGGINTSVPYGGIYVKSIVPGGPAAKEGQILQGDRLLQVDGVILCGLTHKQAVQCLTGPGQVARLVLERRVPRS

GRIP1_3, Q9Y3R0 = target: T2, GRIP1_3, Q9Y3R0
GRIP2_5, Q9C0E4 = target: GRIP2_5, Q9C0E4
Chain of GRIP2_5, Q9C0E4 (Q9C0E4 544-642): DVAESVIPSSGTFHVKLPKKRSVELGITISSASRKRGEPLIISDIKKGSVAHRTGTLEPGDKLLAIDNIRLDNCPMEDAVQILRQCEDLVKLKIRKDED

HTRA1, Q92743 = target: HTRA1, Q92743
Chain of HTRA1, Q92743 (Q92743 360-477): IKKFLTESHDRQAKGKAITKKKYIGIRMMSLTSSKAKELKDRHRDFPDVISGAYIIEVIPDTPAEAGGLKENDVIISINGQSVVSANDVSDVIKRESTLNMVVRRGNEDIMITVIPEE

HTRA4, P83105 = target: T3, HTRA4, P83105
IL16_1, Q14005 = target: IL16_1, Q14005
Chain of IL16_1, Q14005 (Q14005 210-306): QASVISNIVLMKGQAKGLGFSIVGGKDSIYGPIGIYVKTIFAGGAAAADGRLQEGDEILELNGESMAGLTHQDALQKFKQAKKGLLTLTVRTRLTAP

LDB3, O75112 = target: LDB3, O75112
Chain of LDB3, O75112 (O75112 1-94): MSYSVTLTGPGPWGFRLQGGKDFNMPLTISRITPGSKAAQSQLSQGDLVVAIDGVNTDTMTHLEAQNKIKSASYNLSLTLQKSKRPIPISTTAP

LNX2_3, Q8N448 = target: T4, LNX2_3, Q8N448
LRRC7, Q96NW7 = target: T5, LRRC7, Q96NW7
MAGI2_2, Q86UL8 = target: MAGI2_2, Q86UL8
Chain of MAGI2_2, Q86UL8 (Q86UL8 410-522): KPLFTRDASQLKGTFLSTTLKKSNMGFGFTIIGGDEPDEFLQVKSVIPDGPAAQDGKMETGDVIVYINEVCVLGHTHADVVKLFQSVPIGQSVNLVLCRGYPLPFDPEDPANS

MAGI2_3, Q86UL8 = target: MAGI2_3, Q86UL8
Chain of MAGI2_3, Q86UL8 (Q86UL8 600-682): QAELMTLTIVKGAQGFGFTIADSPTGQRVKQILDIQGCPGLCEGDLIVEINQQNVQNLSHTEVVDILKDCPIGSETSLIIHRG

MAST1, Q9Y2H9 = target: MAST1, Q9Y2H9
Chain of MAST1, Q9Y2H9 (Q9Y2H9 962-1065): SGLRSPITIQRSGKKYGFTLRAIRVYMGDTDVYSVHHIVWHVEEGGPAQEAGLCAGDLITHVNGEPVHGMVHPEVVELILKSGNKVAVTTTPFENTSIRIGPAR

MPDZ_5, O75970 = target: T6, MPDZ_5, O75970
MPP6, Q9NZW5 = target: T7, MPP6, Q9NZW5
NHERF2_2, Q15599 = target: NHERF2_2, Q15599
Chain of NHERF2_2, Q15599 (Q15599 142-238): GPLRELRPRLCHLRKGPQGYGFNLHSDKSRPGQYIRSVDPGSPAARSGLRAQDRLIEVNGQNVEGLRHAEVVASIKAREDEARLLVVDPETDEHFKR

PDLIM1, O00151 = target: PDLIM1, O00151
Chain of PDLIM1, O00151 (O00151 1-87): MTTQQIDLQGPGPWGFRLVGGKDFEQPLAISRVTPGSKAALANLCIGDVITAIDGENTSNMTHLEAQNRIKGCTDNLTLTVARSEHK

PICK1, Q9NRD5 = target: PICK1, Q9NRD5
Chain of PICK1, Q9NRD5 (Q9NRD5 17-115): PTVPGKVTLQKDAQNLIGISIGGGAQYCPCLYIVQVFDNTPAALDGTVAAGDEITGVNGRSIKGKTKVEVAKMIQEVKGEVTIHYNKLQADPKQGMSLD

PTPN3, P26045 = target: PTPN3, P26045
Chain of PTPN3, P26045 (P26045 505-587): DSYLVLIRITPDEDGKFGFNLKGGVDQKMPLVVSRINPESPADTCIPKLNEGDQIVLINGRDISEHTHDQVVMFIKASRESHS

RAPGEF6, Q8TEU7 = target: T8, RAPGEF6, Q8TEU7
SIPA1L2, Q9P2F8 = target: T9, SIPA1L2, Q9P2F8
SNTB1, Q13884 = target: T10, SNTB1, Q13884
TIAM2, Q8IVF5 = target: T11, TIAM2, Q8IVF5

Row | Binder | pKd (APBA2_2, Q99767) | pKd (DLG1_1, Q12959) | pKd (DLG4_1, P78352) | pKd (DLG4_3, P78352) | pKd (FRMPD2_1, Q68DX3) | pKd (FRMPD2_2, Q68DX3) | pKd (GRIP1_3, Q9Y3R0) | pKd (GRIP2_5, Q9C0E4) | pKd (HTRA1, Q92743) | pKd (HTRA4, P83105) | pKd (IL16_1, Q14005) | pKd (LDB3, O75112) | pKd (LNX2_3, Q8N448) | pKd (LRRC7, Q96NW7) | pKd (MAGI2_2, Q86UL8) | pKd (MAGI2_3, Q86UL8) | pKd (MAST1, Q9Y2H9) | pKd (MPDZ_5, O75970) | pKd (MPP6, Q9NZW5) | pKd (NHERF2_2, Q15599) | other results
1 | PLDSQQHTEV [FAT1, Q14517] | below the threshold | 4.37 | 4.41 | below the threshold | below the threshold | 3.73 | below the threshold | below the threshold | 4 | 4.26 | below the threshold | below the threshold | below the threshold | below the threshold | below the threshold | below the threshold | 4.43 | below the threshold | below the threshold | below the threshold | pKd (PDLIM1, O00151): below the threshold; pKd (PICK1, Q9NRD5): below the threshold; pKd (PTPN3, P26045): 4.5; pKd (RAPGEF6, Q8TEU7): below the threshold; pKd (SIPA1L2, Q9P2F8): below the threshold; pKd (SNTB1, Q13884): 4.32; pKd (TIAM2, Q8IVF5): below the threshold
2 | EEDTAEKDEL [HSPA5, P11021] | 3.56 | 3.79 | below the threshold | below the threshold | below the threshold | below the threshold | below the threshold | below the threshold | below the threshold | below the threshold | below the threshold | 3.68 | 3.53 | 3.47 | 3.48 | below the threshold | 3.98 | below the threshold | below the threshold | 3.7 | pKd (PDLIM1, O00151): below the threshold; pKd (PICK1, Q9NRD5): below the threshold; pKd (PTPN3, P26045): below the threshold; pKd (RAPGEF6, Q8TEU7): below the threshold; pKd (SIPA1L2, Q9P2F8): below the threshold; pKd (SNTB1, Q13884): below the threshold; pKd (TIAM2, Q8IVF5): below the threshold
3 | RQSILFSTEV [BCR, P11274] | below the threshold | 4.64 | 4.67 | 3.7 | below the threshold | 4.12 | below the threshold | below the threshold | 4.47 | 4.82 | 3.85 | below the threshold | below the threshold | 3.88 | 3.7 | below the threshold | 4.97 | below the threshold | below the threshold | below the threshold | pKd (PDLIM1, O00151): below the threshold; pKd (PICK1, Q9NRD5): below the threshold; pKd (PTPN3, P26045): 4.59; pKd (RAPGEF6, Q8TEU7): below the threshold; pKd (SIPA1L2, Q9P2F8): below the threshold; pKd (SNTB1, Q13884): 4.46; pKd (TIAM2, Q8IVF5): below the threshold
4 | LSEFKAMDSF [CTNNA2, P26232] | below the threshold | below the threshold | below the threshold | below the threshold | below the threshold | below the threshold | below the threshold | below the threshold | below the threshold | below the threshold | below the threshold | below the threshold | below the threshold | below the threshold | below the threshold | below the threshold | below the threshold | below the threshold | below the threshold | below the threshold | pKd (PDLIM1, O00151): below the threshold; pKd (PICK1, Q9NRD5): below the threshold; pKd (PTPN3, P26045): below the threshold; pKd (RAPGEF6, Q8TEU7): below the threshold; pKd (SIPA1L2, Q9P2F8): below the threshold; pKd (SNTB1, Q13884): below the threshold; pKd (TIAM2, Q8IVF5): 4.11
5 | PELESKESVL [SLC1A4, P43007] | below the threshold | 3.51 | 3.79 | below the threshold | below the threshold | below the threshold | below the threshold | below the threshold | 4.41 | below the threshold | 3.9 | below the threshold | below the threshold | 3.53 | below the threshold | below the threshold | 4.71 | below the threshold | below the threshold | 4.4 | pKd (PDLIM1, O00151): 3.59; pKd (PICK1, Q9NRD5): below the threshold; pKd (PTPN3, P26045): 5.05; pKd (RAPGEF6, Q8TEU7): below the threshold; pKd (SIPA1L2, Q9P2F8): below the threshold; pKd (SNTB1, Q13884): 4.8; pKd (TIAM2, Q8IVF5): below the threshold
